# Laboratory results from publication doi:10.1101/2023.03.10.531533 (bioRxiv, 2023).
# B1: VHH R3DC23 (VHH)
# VHH: QVQLQESGGGLVQAGDSLTLSCAVSGRIFSTYTMGWFRQAPGKEREFVAAVRWGAGTIYYADSMKGRFTISRDSAKNTVDLQMNSTKPEDTAVYYCGAAYVSKANYGSLWYQDSRRYDYWGQGTQVTVSS
# Experiments:
# [1] = target: recombinant SARS-CoV-1 spike protein (SARS-CoV-1, isolate , UniProt P59594, stabilised); experiment: ELISA
# [2] = target: mouse Fc-tagged SARS-CoV-2 RBD (SARS-CoV-2, Wuhan-Hu-1 (assumed from …, UniProt P0DTC2)); experiment: ELISA
# [3] = target: HR2 protein, residues H1159-K1211 of the SARS-CoV-2 spike (SARS-CoV-2, UniProt P0DTC2); experiment: crystal structure
binder,measurement,setting,value
B1,binding result,[1],binds
same,binding result,[2],no binding
same,binding result,[3],binds
